Target: Asparaginase-like 1 protein (ASRGL1), recombinant full-length (UniProt Q7L266)
Experiment: differential scanning fluorimetry (protein thermal shift assay); recombinant ASRGL1 with increasing concentrations of TDP-43 in PBS (10 mM phosphate, 150 mM NaCl, pH 7.4), 30 min at 25 °C, ramp 25 to 99 °C; Tm plotted against TDP-43 concentration, inflection point of a sigmoidal fit …

Chain of UniProt Q7L266 (Q7L266 whole entry): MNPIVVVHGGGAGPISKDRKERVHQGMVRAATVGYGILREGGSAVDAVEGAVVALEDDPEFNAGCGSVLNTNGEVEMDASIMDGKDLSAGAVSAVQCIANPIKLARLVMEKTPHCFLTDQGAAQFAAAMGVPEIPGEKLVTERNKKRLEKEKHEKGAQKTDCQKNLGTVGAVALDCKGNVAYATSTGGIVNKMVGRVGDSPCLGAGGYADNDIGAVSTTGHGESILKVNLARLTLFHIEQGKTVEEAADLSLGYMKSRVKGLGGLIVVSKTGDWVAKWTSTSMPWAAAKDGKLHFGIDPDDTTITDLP

TAR DNA-binding protein 43 (TDP-43), native form, recombinant full-length (from UniProt Q13148 1-414) (natural protein)
EC50: 36.1 nM | shift in Tm of ASRGL1 with 1 μM TDP-43: 10 °C
